Assay [1] relates to human monocyte-derived DCs. Conditions: negative control; Olivar et al. 2013; cited from earlier work.
For assay [2], the system named is human monocyte-derived DCs. The experiment in a line: Immunomodulatory activity over human monocyte-derived DCs: CD83/CD86 surface expression by flow cytometry after LPS maturation. In kind it is cell-based. Conditions: MoDCs pre-incubated with 5 μg/ml protein, LPS challenge; FIG. 4. Background: Flow cytometry measures light scatter and fluorescence of single cells or particles in a stream.

B1: C4BP(β+): major C4BP α7β1 plus minor C4BP α6β1 isoforms (in complex with ProS) purified from pooled human plasma; negative control (protein, UniProt P04003 49-597; P20851 18-252, looked up)
C4b-binding protein alpha …: NCGPPPTLSFAAPMDITLTETRFKTGTTLKYTCLPGYVRSHSTQTLTCNSDGEWVYNTFCIYKRCRHPGELRNGQVEIKTDLSFGSQIEFSCSEGFFLIGSTTSRCEVQDRGVGWSHPLPQCEIVKCKPPPDIRNGRHSGEENFYAYGFSVTYSCDPRFSLLGHASISCTVENETIGVWRPSPPTCEKITCRKPDVSHGEMVSGFGPIYNYKDTIVFKCQKGFVLRGSSVIHCDADSKWNPSPPACEPNSCINLPDIPHASWETYPRPTKEDVYVVGTVLRYRCHPGYKPTTDEPTTVICQKNLRWTPYQGCEALCCPEPKLNNGEITQHRKSRPANHCVYFYGDEISFSCHETSRFSAICQGDGTWSPRTPSCGDICNFPPKIAHGHYKQSSSYSFFKEEIIYECDKGYILVGQAKLSCSYSHWSAPAPQCKALCRKPELVNGRLSVDKDQYVEPENVTIQCDSGYGVVGPQSITCSGNRTWYPEVPKCEWETPEGCEQVLTGKRLMQCLPNPEDVKMALEVYKLSLEIEQLELQRDSARQSTLDKEL
C4b-binding protein beta chain: SDAEHCPELPPVDNSIFVAKEVEGQILGTYVCIKGYHLVGKKTLFCNASKEWDNTTTECRLGHCPDPVLVNGEFSSSGPVNVSDKITFMCNDHYILKGSNRSQCLEDHTWAPPFPICKSRDCDPPGNPVHGYFEGNNFTLGSTISYYCEDRYYLVGVQEQQCVDGEWSSALPVCKLIQEAPKPECEKALLAFQESKNLCEAMENFMQQLKESGMTMEELKYSLELKKAELKAKLL
modifications: in complex with protein S
notes: major C4BP α7β1 plus minor C4BP α6β1 isoforms (in complex with ProS) purified from pooled human plasma; negative control
As for B1, the immunomodulatory activity result in assay [1] is on record as “no immunomodulatory activity”. In addition, the “semi-mature, anti-inflammatory phenotype conferred to LPS-matured MoDCs (immunomodulatory activity)” value in assay [2] was “inactive”.

The values are drawn from patent publication US12006343B2, “C4BP-based compounds for treating immunological diseases” (FUNDACIO INSTITUT D'INVESTIGACIO BIOMEDICA DE BELLVITGE …, priority 2017, dated 2024).
